According to patent publication US20040146931:

Test system: Gal11P-P53zf zinc finger (artificial)
Test: cell_activity
Conditions: EGFP over control, in vivo site selection

Sequence: CGGGACACGGG (double strand) [in vivo selected P53zf site 3]
- binding: > 2 fold

Sequence: CGGGACACGTG (double strand) [in vivo selected P53zf site 1]
- binding (matches the consensus): > 2 fold

Sequence: CGGGACATGTG (double strand) [in vivo selected P53zf site 2]
- binding: > 2 fold
